The data set can be described thus: label from the status in PepcDB records.

With “MNEIFGIDLGTTYSCISYVDEYGRPVVVPNAENERITPSVVFFDGDNVIVGDVAKENSKMYPEDVVSFVKRSMGDENFYFEHGGKNYHAEEISSFILRKLISDAENNLGQKINDVVITCPAYFGINEREATKLAGEIAGLNVKAIINEPTAAAVAYGVDYDKDKVVLVYDLGGGTFDVTMIDVKKDSIKVICTGGDHNLGGKDWDDALIAYMAEQYKEITGNDKDILEDPETCQELQLLAERVKKTLSQREKAPISINYEGERAKIEITRQKFNELTYDLLQRTVNLMDDMLKEAAKKNYTSFDEILLVGGSSRMPQVEEIIKNKYNIEPKVFDPDEAVSKGAALYGWKLSVNDELVRRISEETGKDIEDIKKSIDEKSIDENVVEAAAKRVADDTGYTLSAVKASNVKVVNVVSKSFGVVTYNNEEKEVVYNLIIKNSEVPYEFTERFGTREENQENVMIKIVEDELSDKIVDIAYGNEIGEAELVLPENLPKNSPVDITFKLNEEGRLEIKAIEAVEKREISTSIETSSVIKGKDLEEAKERNKNIEVS”, the protein production entry was “failed”.

In the case of “MNENAPTHKSSHKVKTHTPVSGYHIEDLRTYPTEKLLEIANKLKVENPQEFKRQDLMFEILKTQVTQGGYILFTGILEIMPDGYGFLRGFDGSFSDGHNDTYVSPSQIRRFALRNGDIVTGQVRSPKDQEKYYALLKIEAINYSPSDEIRNRPLFDNLTPLFPDEQIKLEYEPTKVTGRMLDLFSPVGKGQRALIVAPPRTGKTELMKELAQGITSNHPEVELIILLVDERPEEVTDMQRSVKGQVFSSTFDLPANNHIRIAELVLERAKRRVEMGKDVVVLLDSITRLARAYNAVTPSSGKVLSGGVDANALHRPKRFFGAARNIEEGGSLTIIATALIETGSRMDEVIFEEFKGTGNSEIVLARNIADRRIYPAFDILKSGTRKDNILLGKDRLTKVWVLRNVMQQMDDIEALSFVYSKMQQTKDNEEFLNLMNEK”, the protein production result is “failed”.

In the case of “MNENHKELISIGLTVSIVIFSLYIVHKFIPSMIWAAIIVIATYPLYTRWRKLFGNKHNTSAFLFTTLMGLLFLIPLSWLIGILIKESQLFINFLQHINKEGGAAPEFFKNIPLVGDDLIQYWDVNIGKPGNIKEFLSNLHVTLTPTSYYIKQIGVNLAHRSFQVGFTLLTLFFFYRDGDKLLLQIQHIGEYCLGDRWFRYSDRLPSALRGTVNGTIVVGIGVGILMGVCYALVGFPAPTLTGFITALAAMIPFVVPVVFIIVALILLSVGSLIGGIIVLVWGTLVMFVADHFVKPVLIGGAIQLPFLAVLFGILGGVETLGLLGLFLGPMVMVLFVTLWQEPQGHKKSSG”, the protein production entry is “failed”.

For the sequence “MNERRKAELVLLGATFIWGSTFPVMKIGVEDFPPITFIALRFGIASFVLFLALRKHIRKDALFPGLILGFTLFLGHGFQIVGLKYTTPSNSAFITSLYVVFTPFIAFLFFRKGLKMFDAFSLSLAVIGLYLISNAELRLNYGDALTVVAALSFAFQIVLVEYFGNLGVGLAFWQIFWNFILSTVYAGIFEGISLPSDPKVLGGIIYTGIFATALSFTLQVKYQPKVESYKAAIIYSSEPIFAHLLALAFLNDRLPPKGYLGAFLILLAVWLELYQERKNY”, the protein production result is on record as “failed”.

For “MNESERKIVEEFQKETGINFKNEELLFRALCHSSYANEQNQAGRKDVESNEKLEFLGDAVLELFVCEILYKKYPEAEVGDLARVKSAAASEEVLAMVSRKMNLGKFLFLGKGEEKTGGRDRDSILADAFEALLAAIYLDQGYEKIKELFEQEFEFYIEKIMKGEMLFDYKTALQEIVQSEHKVPPEYILVRTEKNDGDRIFVVEVRVNGKTIATGKGRTKKEAEKEAARIAYEKLLKERS”, the protein production result was “not failed”.

On to “MNFAGKHVGFGLTGSHCTYHEVLPQMERLVELGAKVTPFVTHTVQTTDTKFGESSEWINKIKQITEEPIVDSMVKAEPFGPKTPLDCMVIAPMTGNSTSKFANAMTDSPVLMGAKATLRNGKPVVVGISTNDALGLNGINIMRLMATKNIYFIPFGQDNPQVKPNSLVARMEALPETIEAALRGQQYQPVLIEKFRD”, for which the protein production result was “not failed”.

In the case of “MNFLSQRYTGKSLHPDETKCYKNFTQTAQKLTHRLAESINHYVNHIDCVINTNLYNRLLAEKKESNHMIYKERETWLEAILNTLPDHVFILDESGRYIESFGGTHHSKTFNAERYIGLQLSDVLSPTKADELMGFIFDVMQDNETKVVKYNLSLHDHLLLPIEELEALENPEEMWFEAIIKPVNAPENANKLVIWSVRDITKTHLLEQRLKQLSETDALTGLLNRRAFISNLDNAIIQHTKRSQTLSCLMIDIDHFKDINDSVGHFSGDHVITRIAHVCQGVIRGSDFIGRLGGEEFAVILTDTNAIQAYEVAERIRQAIQATICHVDDVEITTTVSIGVAELNSQQSNAKELLIEADKAMYYSKHSGRNQVTLAYENLPDLKLYQAGHLKIQRVS”, the protein production entry is “failed”.

As for “MNFNRFTQRAKKAIDLAFESAKSLGHNIVGSEHILLGLLREEEGIAAKVLSKVGFTEAYLEGKIVDMEGKGEEISEDIVLSPRSKQILELSGMFANKLKTNYIGTEHILLAIIQEGEGIANKILNYAGVNDRTLAQLTIDMMG”, the protein production result is “not failed”.

“MNFQENLAALDLEYLWHPCSQMQEHQNFPIIPIKKAQGIYLYDFNDNAYMDLISSWWVNLFGHNNAYISQQLKNQIDDLEHVLLASFSHKPIITLSQRLCQLTHMDKCFYADNGSSCVEIALKMSYHAHFLKNQTRRKKLFLSLSNSYHGETLGALSVGDVKLYKDTYTPLLLKNLTTPVPKNDHEIENSLNALKRLLDKHSEEICAFIAEPLLQCAGNMHIYSARYLKQAVLLCKQKNIHIIFDEIATGFGRTGSMFAYEQCEIKPDFLCLSKGISGGYLPLSALLTHNEIYNQFYAPYEENKAFLHSHSYTGNALACACANATLDIFEKENVIEKNKALSGFIFNTLQNALKPLMEQQVVSDLRHLGMVFAFEVFIQTKERLSLAVFKKTLKKGLLLRPLNNTIYLMPPYIITHEEVKKAVAGLVEILDELRKG”: the protein production result was “failed”.

Take “MNFSTSFWQGFRALVPLWLGTVPFALAYAVTARAAGLSVGDTCLMSLTTFAGASQFAAAGLFGAHAGGLSIVLTTFLLNARHLLYGLSLARELRLTLPQRVVAAQFLTDEAYGVAVVSGARLPGGLTFAFLLGAELSLYLSWNVSTLLGALAGSVLPPPEQLGVGVVFPLAFLGLLVPLVVDRLSLLVALAAGLGGWALSRVLPGGLVILLAGVGGALLGAALLTRREQRAGVRA”: the protein production entry was “failed”.

Consider “MNGFVQWMEVKLMPIANKFGSQRHMTAIRKGLIATMPLTIVGSFFTIFQNIPIEAYTKLIEPYQAILDIPSRYTMGLLALYATFGIASSLAKSYKLDSLTCGILALMAFLVTAAPPTRVFEDVDNVITAGRYINLANLGSASLFGAIVTALLSVEIYRFFIEKDIMIKMPDGVPPEVSNSFIALIPGAVILLLFWVIRHVIGFDLNGFLSTLLMPLKGILAGNSLFGGLLTVFLICFFWVLGIHGPAIMGPVIRPFWDMSIAENLEAFTNGANVHQLPNIFTEQFLQWFIWIGGAGTTLSLVVLMMFSKSTYLKSLGRLSFLPGLFNINEPVIFGTPIVMNPILGIPFIVAPLITTTLSYFLTVANIIPMMAARLAFAIPAPIAAWMSTNWSFSAAVLVIVNFLITMAIYYPFFKVYEKQQLDKEAEELAAEQAAKN”, for which the protein production entry is given as “failed”.

On to “MNGGSSIKVLGLVGSPKVDGNTAKMVDAILEGAAENGAETVIYNLASLDIKGCDACHRCQETGCCAIDDDMQELYRQIEEADAVVLGSPVYMWQMTAQTKLLIDRMTAFLKPNFSSRLDHKKLILVFTQGIPDRDAFNSYFEYTAGVLYYLGFDVLETIVAAGTDNLEVAFRPRLLEKSRELGKLISASNPVSPRLEHHHHHH”, for which the protein production entry is “failed”.

“MNGGTFTPGKEKDRAGIYFNFKTTAEERVSIGDRGTVALPVVMSWGEPKTFVSISSIEDLNKKVGLNIDDPSLLLFREAKKNAQTVLLYRLNTGAPAKAQIGETLSVTAKYGGEKGNDISIRISENVLDSKKFDVTTFVGTDEADRQTVKTAEELTANAYVAFQGEGALELTAGTKLSGGENGTASVADYTAFLDAAETEYFNTIALPVADNEQLKATFAAFIKRLRDKQGQKVQGVVADYAGDYEGIINVTGGVVLEDGTEITPEKATAWVAGASAGATFNQSLTFVEYEGAVDVLNRLDEDQVIERLKKGEFLFTFDARDQSVSVEKDINSLTSFTADKNKKFSKNKIIRVLDGVNNDLTRELKALIKARKASGSDIPASDDGLQYVKTLIIQYMTALQEAGGITGFDSESDIAITLNEDRDGFLIDLAVQPVDAAEKFYFNVEVK”: the protein production entry is “failed”.

As for “MNGYVYLVGAGPGDEGLITKKAIECLKRADIVLYDRLLNPFFLSYTKQTCELMYCGKMPKNHIMRQEMINAHLLQFAQEGKIVVRLKGGDPSIFGRVGEEAETLAAANIPYEIVPGITSSTAASSYAGIPLTHRNYSNSVTLLTGHAKGSLTDHGKYNSSHNSDTIAYYMGIKNLPTICKNLRQAGKKEDTPVAVIEWGTTGKQRVVTGTLSTIVSIVKNENISNPSMTIVGDVVSLRDQIAWKEHKPLHGKKVLFTSATNKTSVMKQKLQEAGAEIYQIPTFKKEEYTLTLEQIIEIFNVNRLVFCSAESVEILMQSCSKYKKDIRSLQAELQHMNVATQEKLMQYGLLSKEAKFSSDTTVYLGRNINRIAFIQEKIGAGSYMMTHKYTIDHRFDEVHSRMLSEFLWDSIVFEGRASIDTFLAEVKRLGFLDIVTLPFSYTDVPTLRYANKVGFHNIDHQLQETLMQKDMVRQ”, the protein production result is reported as “failed”.

Consider “MNHFTPAQQRKALGYLVLFHLVIIASSNYLVQIPFTIFGFHTTWGAFTFPFIFLATDLTVRIFGAGLARKIIFLVMLPALAVSYLLSVVFFEGQYQGLAPLSEFNLFVARIAIASFMAYLLGQIMDVHVFNRLRQMKQWWVAPTCSTLFGNALDTIAFFSIAFYQSSDPFMAEHWTEIALVDYTFKLIISLGLFVPMYGVLLNYLIKKLTAVNPNFAMASAKA”, for which the protein production entry is “failed”.

For the sequence “MNHLISVGALESFLVAISVLFLGHFINAKLPILKKFNIPEPIVGGLIVACIITALHFNGVDLEFDLPLQNTFMLMFFATVGLAANYTQLMKGGAKVFIFLAVASFYIIIQNGVGVSLAAALGLDPLMGLIAGSITLSGGHGTGAAWSQTFQDVYGLNNVLEIAMASATFGLIIGGIIGSPVAQRLVEKHGIESEYGRGGRDAKTHEKFPELVTYNEYEEDKVTAKKVVEKLFFLLICVTGAKYVEQWVSTYEISWLMIPDFVYALFIGVIITNFLEVTKIRKLDAETVDMLGTVSLSLFLAMALMSLKLWNIFDLAIPFLVILAIQSVILAIFTYYVTFKVMGSNYDAAVISGGHCGFGLGATPTAVMNMGSIVNRFGPSPQAFMVVPIVGAFFIDIVNLIILQGYISFLG”, the protein production result is “failed”.

As for “MNHLPEKMRPYRDLLEKSAKEYVKLNVRKGKTGRYDSKIAGDPYFPKHETYPTDENGQPMKLLAQINFSHIPQLDGYPSSGILQFYISVHDDVYGLNFDDRCEQKNFRVIYFENIVENDDELVSDFSFIGTGECDFPILSEAAVEPVKSSEWVLPTDFQFEQYTGMETMEFFGQFGEDEEDIYNELAENGFGHKIGGYASFTQHDPREYAYKEHTIMLLQIDSDDDIDSMWGDVGIANFFITPEDLRKKDFSNVLYNWDCS”, the protein production entry is on record as “not failed”.

Consider “MNHTSDTALLIVNLGTPEAPTAAAVRRYLGEFLSDRRVVSIPPLFWKPLLHMVILPIRGPRSASKYAKVWLQEGSPLSVYTRRIAEGLTQHLPDWRVAWAMRYGAPALTKALDALQAQQVRRIVILPLYPQYSTTTTASVQDVVEAWCKRTPQVQVECIQDYAEDPAWVAAVAASIRRHWQAHGRSEKLMFSFHGLPQRVANNGDPYPQRCQVSASLIAAALNLNESEWVLGYQSRFGAERWLQPYAEPTLWALAESGIRRFDLVCPGFSVDCLETLEEVALGFSETLAARGATMRYIPCLNDDPAHVQALAGLAQRALP”, for which the protein production entry is “failed”.

“MNIAEQMKDVLKEEIKAAVLKAGLAEESQIPNVVLETPKDKTHGDYSTNMAMQLARVAKKAPRQIAEEIVAHFDKGKASIEKLDIAGPGFINFYMNNQYLTKLIPSVLEAGEAYG”: the protein production result is given as “failed”.

Source of the values: a protein production outcome set (Wang et al. 2014).
